From patent publication US20250122303A1 (HUMMINGBIRD BIOSCIENCE PTE, published 2025)

How the values were obtained:
[1] = molecular target: T1, FcRn (human, UniProt P55899); test: Bio-Layer Interferometry (determined as described in Example 7)
T1 construct: recombinant; also called human FcRn; gene FCGRT (so in the source)

[2] = molecular target: T2, FcgRIIA (H167) (human, UniProt P12318); test: as above
T2 construct: recombinant; also called CD32A; hFcγRIIa167H
T2 sequence (receptor, looked up): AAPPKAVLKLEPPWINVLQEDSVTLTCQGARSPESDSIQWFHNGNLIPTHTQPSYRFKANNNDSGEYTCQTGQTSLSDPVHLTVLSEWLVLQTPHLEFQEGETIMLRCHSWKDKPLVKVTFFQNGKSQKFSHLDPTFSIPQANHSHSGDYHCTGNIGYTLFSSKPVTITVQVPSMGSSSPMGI

[3] = molecular target: T3, FcgRIIA (R167) (human, UniProt P12318); test: as above
T3 construct: recombinant; also called CD32A; hFcγRIIa167R
T3 sequence (receptor, looked up): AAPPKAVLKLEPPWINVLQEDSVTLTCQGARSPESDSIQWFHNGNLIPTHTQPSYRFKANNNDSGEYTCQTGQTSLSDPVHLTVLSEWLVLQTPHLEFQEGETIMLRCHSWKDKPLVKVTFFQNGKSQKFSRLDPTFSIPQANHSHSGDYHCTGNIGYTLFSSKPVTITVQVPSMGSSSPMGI

[4] = molecular target: T4, His-tagged FcγRIIIa (V158) (human, UniProt P08637 17-208); test: as above
T4 construct: not shown: His tag

[5] = molecular target: T5, moFcRn (mouse, UniProt Q61559); test: as above
T5 construct: recombinant; also called mouse FcRn; gene FCGRT (so in the source)
T5 sequence (receptor, looked up): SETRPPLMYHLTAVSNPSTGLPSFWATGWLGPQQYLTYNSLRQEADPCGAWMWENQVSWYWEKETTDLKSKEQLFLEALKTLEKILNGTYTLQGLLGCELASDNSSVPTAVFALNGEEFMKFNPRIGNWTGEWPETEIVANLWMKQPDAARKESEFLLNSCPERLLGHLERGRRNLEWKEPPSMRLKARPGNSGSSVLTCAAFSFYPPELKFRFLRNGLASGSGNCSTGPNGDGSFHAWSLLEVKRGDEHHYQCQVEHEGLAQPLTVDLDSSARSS
T5 sequence (looked up): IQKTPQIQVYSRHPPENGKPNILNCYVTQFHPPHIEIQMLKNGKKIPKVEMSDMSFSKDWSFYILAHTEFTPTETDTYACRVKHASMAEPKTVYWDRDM

[6] = molecular target: T6, moFcgRIV; test: as above
T6 construct: also called CD16-2; mFcγRIV
T6 chain: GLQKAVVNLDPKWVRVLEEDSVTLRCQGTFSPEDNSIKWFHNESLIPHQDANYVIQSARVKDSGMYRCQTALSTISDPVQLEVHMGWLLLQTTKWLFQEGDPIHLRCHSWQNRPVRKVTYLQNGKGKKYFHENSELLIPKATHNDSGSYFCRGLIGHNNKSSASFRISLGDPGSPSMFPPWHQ

[7] = molecular target: T7, human HER3 polypeptide (human, UniProt P21860 20-643); test: ELISA, plate coated with human HER3, antibody titrated, absorbance 450 nm, x axis Log([Ab]) (ug/ml)
T7 construct: Recombinant antigen of the ELISAs; also called human HER3 (Sino Biological Inc.); human antigen HER3

[8] = molecular target: T8, recombinant biotinylated human HER3 protein (human, UniProt P21860 20-643, limits assumed, biotinylated, site not stated); test: plate ELISA dimerisation assay; human EGFR-His coated, constant HER3-biotin and NRG, antibody varied; blocked partner EGFR-His
T8 construct: also called HER3-biotin
Method: Plate-based ELISA dimerisation assays were performed according to standard protocols. Plate was coated with 1 μg/ml human EGFR-His. […] Plates were then washed and incubated for 1 hour with secondary anti-avidin HRP antibody. […] The absorbance was read at 450 nm.

[9] = molecular target: T9, human HER3 expressed on cells (HEK293 HER3 O/E cells) (human, UniProt P21860 20-1342); test: flow cytometry, HEK293 cells overexpressing human HER3 (293_OE HER3), 20 ug/ml antibody, FITC anti-Fc secondary; same antibody on 293 cells: 2.78; unstained 293: 0.14
T9 construct: Also used here for HER3 on U2OS cells of the PathHunter kit and on cancer cell lines; also called HEK293 cells transfected with vector encoding human HER3; human HER3-expressing cells

[10] = molecular target: T10, His-tagged human HER3 (human, UniProt P21860 20-643); test: BLI (Octet QK384), antibody on anti-human IgG capture tips, His-tagged human HER3 in solution, global 1:1 fit, R^2 = 0.9902, kon Error 1.12E+04; Response 0.1471 / 0.2882 / 0.3968 / 0.5458 at 35 / 69 / 139 / 278 nM
T10 construct: Antigen of the BLI experiments and of the HER2-Fc dimerisation ELISA; also called HER3 His; not shown: His tag
Method: The anti-HER3 antibody clones in IgG1 format were analysed for binding affinity to human HER3. Bio-Layer Interferometry (BLI) experiments were performed using the Octet QK384 system (ForteBio). anti-Human IgG Capture (AHC) Octet sensor tips (Pall ForteBio, USA) were used to anti-HER3 antibodies (25 nM). All measurements were performed at 25° C. with agitation at 1000 rpm. […] Sensograms were referenced for buffer effects and then fitted using the Octet QK384 user software (Pall ForteBio, USA). Kinetic responses were subjected to a global fitting using a one site binding model to obtain values for association (Kₒₙ), dissociation (Koff) rate constants and the equilibrium dissociation constant (KD). Only curves that could be reliably fitted with the software (R²>0.90) were included in the analysis.

Kd [1]: 47.6 nM | Kd [2]: 1800 nM | Kd [3]: 976 nM | Kd [4]: 986 nM | Kd [5]: 14.6 nM | Kd [6]: 1810 nM | EC50 (read off the curve) [7]: ~2 ng/mL | IC50 [8]: 4.78 nM | % Parent (HER3 positive) [9]: 44.6% | kon [10]: 297000 M⁻¹ s⁻¹
B1: 10D1F.FcA (anti-HER3 clone 10D1_c89 IgG1) (antibody)
heavy: not shown
light: DIQMTQSPSSVSASVGDRVTITCKASQIVGSNVAWYQQKPGKAPEPLIYSASYLYSGVPSRFSGSGSGTDFTLTISSLQPEDFATYYCQQYSSHPLTFGQGTKLEIKRTVAAPSVFIFPPSDEQLKSGTASVVCLLNNFYPREAKVQWKVDNALQSGNSQESVTEQDSKDSTYSLSSTLTLSKADYEKHKVYACEVTHQGLSSPVTKSFNRGEC
notes: also called 10D1F.A; HMBD-001
